These results are taken from US20150368659.

Series [1] deals with GBSS_T1 TALE-nuclease right monomer (synthetic construct (Xanthomonas TALE)?). Briefly: cell_activity. The note with it: pair with left monomer; S. tuberosum protoplasts; 23% with TREX2 co-delivered; full target SEQ 5.
Series [2] deals with GBSS_T1 TALE-nuclease left monomer (synthetic construct (Xanthomonas TALE)?). Nature of the series: cell_activity. The settings on record: pair with right monomer; S. tuberosum protoplasts; 23% with TREX2 co-delivered; full target SEQ 5.

Take “AGCTTGATGGGCTCCAA (double strand) [GBSS_T1 right half-site]”: in series [1], the activity (% NHEJ mutagenesis) turned out to be 11.
The sequence “TCTGACTCACAATGGTT (double strand) [GBSS_T1 left half-site]” gave an activity (% NHEJ mutagenesis) in series [2] of 11.
